Data as given in patent publication US20070243583A1 (University of Texas, published 2007).

T1: RNase A (UniProt P61823 27-150)
T1 sequence (looked up): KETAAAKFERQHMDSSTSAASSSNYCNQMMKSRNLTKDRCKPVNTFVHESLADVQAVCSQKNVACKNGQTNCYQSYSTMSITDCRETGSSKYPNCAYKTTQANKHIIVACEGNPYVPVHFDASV


Key:
RNase A = molecular target: T1, RNase A; assay: cell-based or functional assay
[1] = molecular target: the molecule itself; assay: gel filtration FPLC of the purified protein (self-association, homodimer)

Binder	Citrate Synthase Inactivation, CS t1/2 (citrate synthase) [min]	Citrate Synthase Inactivation, µ (citrate synthase) [min - 1]	Insulin Reduction (*10^3 DA650 nm/min^-2) (insulin)	RNAse Refolding (RNase A) [µM/min/µM Enzyme]	binding result [1]
FkpA-DsbA4 (protein) AEAAKPATAADSKAAFKNDDQKSAYALGASLGRYMENSLKEQEKLGIKLDKDQLIAGVQDAFADKSKLSDQEIEQTLQAFEARVKSSAQAKMEKDAADNEAKGKEYREKFAKEKEDGKQYTTLEKPVAGAPQVLEFFSFFCPHCYQFEEVLHISDNVKKKLPEGVKMTKYHVNFMGGDLGKDLTQAWAVAMALGVEDKVTVPLFEGVQKTQTIRSASDIRDVFINAGIKGEEYDAAWNSFVVKSLVAQQEKAAADVQLRGVPAMFVNGKYQLNPQGMDTSNMDVFVQQYADTVKYLSEKKHHHHHH	3.82	0.45	0.55		
FkpA-DsbA3 (protein) AEAAKPATAADSKAAFKNDDQKSAYALGASLGRYMENSLKEQEKLGIKLDKDQLIAGVQDAFADKSKLSDQEIEQTLQAFEARVKSSAQAKMEKDAADNEAKGKEYREKFAKEKYEDGKQYTTLEKPVAGAPQVLEFFSFFCPHCYQFEEVLHISDNVKKKLPEGVKMTKYHVNFMGGDLGKDLTQAWAVAMALGVEDKVTVPLFEGVQKTQTIRSASDIRDVFINAGIKGEEYDAAWNSFVVKSLVAQQEKAAADVQLRGVPAMFVNGKYQLNPQGMDTSNMDVFVQQYADTVKYLSEKKHHHHHH	2.01	0.36	0.43		
DsbC (enzyme, Escherichia coli, UniProt P0AEG6 21-236, looked up, also called wild-type DsbC) DDAAIQQTLAKMGIKSSDIQPAPVAGMKTVLTNSGVLYITDDGKHIIQGPMYDVSGTAPVNVTNKMLLKQLNALEKEMIVYKAPQEKHVITVFTDITCGYCHKLHEQMADYNALGITVRYLAFPRQGLDSDAEKEMKAIWCAKDKNKAFDDVMAGKSVAPASCDVDIADHYALGVQLGVSGTPAVVLSNGTLVPGYQPPKEMKEFLDEHQKMTSGK	3.15	0.22	5.81	0.067	binds
FkpA-DsbA5 (protein) AEAAKPATAADSKAAFKNDDQKSAYALGASLGRYMENSLKEQEKLGIKLDKDQLIAGVQDAFADKSKLSDQEIEQTLQAFEARVKSSAQAKMEKDAADNEAKGKEYREKFAKEKDGKQYTTLEKPVAGAPQVLEFFSFFCPHCYQFEEVLHISDNVKKKLPEGVKMTKYHVNFMGGDLGKDLTQAWAVAMALGVEDKVTVPLFEGVQKTQTIRSASDIRDVFINAGIKGEEYDAAWNSFVVKSLVAQQEKAAADVQLRGVPAMFVNGKYQLNPQGMDTSNMDVFVQQYADTVKYLSEKKHHHHHH	2.71	0.26	0.38		
FkpA-DsbA2 (protein) AEAAKPATAADSKAAFKNDDQKSAYALGASLGRYMENSLKEQEKLGIKLDKDQLIAGVQDAFADKSKLSDQEIEQTLQAFEARVKSSAQAKMEKDAADNEAKGKEYREKFAKEKQYEDGKQYTTLEKPVAGAPQVLEFFSFFCPHCYQFEEVLHISDNVKKKLPEGVKMTKYHVNFMGGDLGKDLTQAWAVAMALGVEDKVTVPLFEGVQKTQTIRSASDIRDVFINAGIKGEEYDAAWNSFVVKSLVAQQEKAAADVQLRGVPAMFVNGKYQLNPQGMDTSNMDVFVQQYADTVKYLSEKKHHHHHH	2.46	0.17	0.45		
